The values below come from patent publication US7169891B2, “Human pellino polypeptides” (Immunex Corporation, priority 2000, dated 2007).

B1: wild-type Pellino-2: wild-type Pellino-2 polypeptide expressed in COS cells; species not stated at the result (protein, UniProt Q9HAT8 1-420, looked up)
E3 ubiquitin-protein ligase …: MFSPGQEEHCAPNKEPVKYGELVVLGYNGALPNGDRGRRKSRFALYKRPKANGVKPSTVHVISTPQASKAISCKGQHSISYTLSRNQTVVVEYTHDKDTDMFQVGRSTESPIDFVVTDTISGSQNTDEAQITQSTISRFACRIVCDRNEPYTARIFAAGFDSSKNIFLGEKAAKWKNPDGHMDGLTTNGVLVMHPRGGFTEESQPGVWREISVCGDVYTLRETRSAQQRGKLVESETNVLQDGSLIDLCGATLLWRTADGLFHTPTQKHIEALRQEINAARPQCPVGLNTLAFPSINRKEVVEEKQPWAYLSCGHVHGYHNWGHRSDTEANERECPMCRTVGPYVPLWLGCEAGFYVDAGPPTHAFTPCGHVCSEKSAKYWSQIPLPHGTHAFHAACPFCATQLVGEQNCIKLIFQGPID
B2: dN180-FLAG: murine Pellino-1-FLAG, N-terminal 180 amino acids deleted (protein, UniProt Q8C669 181-418, looked up, fragment)
chain: DGLTTNGVLVMHPRNGFTEDSKPGIWREISVCGNVFSLRETRSAQQRGKMVEIETNQLQDGSLIDLCGATLLWRTAEGLSHTPTVKHLEALRQEINAARPQCPVGFNTLAFPSMKRKDVVDEKQPWVYLNCGHVHGYHNWGNKEERDGKDRECPMCRSVGPYVPLWLGCEAGFYVDAGPPTHAFSPCGHVCSEKTTAYWSQIPLPHGTHTFHAACPFCAHQLAGEQGYIRLIFQGPLD
modifications: FLAG tag
notes: murine Pellino-1-FLAG, N-terminal 180 amino acids deleted
B3: 1–350: murine Pellino-1, only amino acids 1–350 present (protein, UniProt Q8C669 1-350, looked up, fragment)
chain: MFSPDQENHPSKAPVKYGELIVLGYNGSLPNGDRGRRKSRFALFKRPKANGVKPSTVHIACTPQAAKAISNKDQHSISYTLSRAQTVVVEYTHDSNTDMFQIGRSTESPIDFVVTDTVPGSQSNSDTQSVQSTISRFACRIICERSPPFTARIYAAGFDSSKNIFLGEKAAKWKTSDGQMDGLTTNGVLVMHPRNGFTEDSKPGIWREISVCGNVFSLRETRSAQQRGKMVEIETNQLQDGSLIDLCGATLLWRTAEGLSHTPTVKHLEALRQEINAARPQCPVGFNTLAFPSMKRKDVVDEKQPWVYLNCGHVHGYHNWGNKEERDGKDRECPMCRSVGPYVPLWLGCE
B4: 1–250: murine Pellino-1, only amino acids 1–250 present (protein, UniProt Q8C669 1-250, looked up, fragment)
chain: MFSPDQENHPSKAPVKYGELIVLGYNGSLPNGDRGRRKSRFALFKRPKANGVKPSTVHIACTPQAAKAISNKDQHSISYTLSRAQTVVVEYTHDSNTDMFQIGRSTESPIDFVVTDTVPGSQSNSDTQSVQSTISRFACRIICERSPPFTARIYAAGFDSSKNIFLGEKAAKWKTSDGQMDGLTTNGVLVMHPRNGFTEDSKPGIWREISVCGNVFSLRETRSAQQRGKMVEIETNQLQDGSLIDLCGAT
B5: dN99-FLAG: murine Pellino-1-FLAG, N-terminal 99 amino acids deleted (protein, UniProt Q8C669 100-418, looked up, fragment)
chain: FQIGRSTESPIDFVVTDTVPGSQSNSDTQSVQSTISRFACRIICERSPPFTARIYAAGFDSSKNIFLGEKAAKWKTSDGQMDGLTTNGVLVMHPRNGFTEDSKPGIWREISVCGNVFSLRETRSAQQRGKMVEIETNQLQDGSLIDLCGATLLWRTAEGLSHTPTVKHLEALRQEINAARPQCPVGFNTLAFPSMKRKDVVDEKQPWVYLNCGHVHGYHNWGNKEERDGKDRECPMCRSVGPYVPLWLGCEAGFYVDAGPPTHAFSPCGHVCSEKTTAYWSQIPLPHGTHTFHAACPFCAHQLAGEQGYIRLIFQGPLD
modifications: FLAG tag
notes: murine Pellino-1-FLAG, N-terminal 99 amino acids deleted
B6: dN230-FLAG: murine Pellino-1-FLAG, N-terminal 230 amino acids deleted (protein, UniProt Q8C669 231-418, looked up, fragment)
chain: VEIETNQLQDGSLIDLCGATLLWRTAEGLSHTPTVKHLEALRQEINAARPQCPVGFNTLAFPSMKRKDVVDEKQPWVYLNCGHVHGYHNWGNKEERDGKDRECPMCRSVGPYVPLWLGCEAGFYVDAGPPTHAFSPCGHVCSEKTTAYWSQIPLPHGTHTFHAACPFCAHQLAGEQGYIRLIFQGPLD
modifications: FLAG tag
notes: murine Pellino-1-FLAG, N-terminal 230 amino acids deleted
B7: dN50-FLAG: murine Pellino-1-FLAG, N-terminal 50 amino acids deleted (protein, UniProt Q8C669 51-418, looked up, fragment)
chain: GVKPSTVHIACTPQAAKAISNKDQHSISYTLSRAQTVVVEYTHDSNTDMFQIGRSTESPIDFVVTDTVPGSQSNSDTQSVQSTISRFACRIICERSPPFTARIYAAGFDSSKNIFLGEKAAKWKTSDGQMDGLTTNGVLVMHPRNGFTEDSKPGIWREISVCGNVFSLRETRSAQQRGKMVEIETNQLQDGSLIDLCGATLLWRTAEGLSHTPTVKHLEALRQEINAARPQCPVGFNTLAFPSMKRKDVVDEKQPWVYLNCGHVHGYHNWGNKEERDGKDRECPMCRSVGPYVPLWLGCEAGFYVDAGPPTHAFSPCGHVCSEKTTAYWSQIPLPHGTHTFHAACPFCAHQLAGEQGYIRLIFQGPLD
modifications: FLAG tag
notes: murine Pellino-1-FLAG, N-terminal 50 amino acids deleted
B8: Y154A-FLAG: murine Pellino-1-FLAG, Tyr to Ala substitution at residue 154 (protein, UniProt Q8C669 1-418, looked up, variant Y154A)
E3 ubiquitin-protein ligase …: MFSPDQENHPSKAPVKYGELIVLGYNGSLPNGDRGRRKSRFALFKRPKANGVKPSTVHIACTPQAAKAISNKDQHSISYTLSRAQTVVVEYTHDSNTDMFQIGRSTESPIDFVVTDTVPGSQSNSDTQSVQSTISRFACRIICERSPPFTARIAAAGFDSSKNIFLGEKAAKWKTSDGQMDGLTTNGVLVMHPRNGFTEDSKPGIWREISVCGNVFSLRETRSAQQRGKMVEIETNQLQDGSLIDLCGATLLWRTAEGLSHTPTVKHLEALRQEINAARPQCPVGFNTLAFPSMKRKDVVDEKQPWVYLNCGHVHGYHNWGNKEERDGKDRECPMCRSVGPYVPLWLGCEAGFYVDAGPPTHAFSPCGHVCSEKTTAYWSQIPLPHGTHTFHAACPFCAHQLAGEQGYIRLIFQGPLD
modifications: FLAG tag
B9: F165L-FLAG: murine Pellino-1-FLAG, Phe to Leu substitution at residue 165 (protein, UniProt Q8C669 1-418, looked up, variant F165L)
E3 ubiquitin-protein ligase …: B8 E3 ubiquitin-protein ligase … with A154Y, F165L
modifications: FLAG tag
B10: F158A-FLAG: murine Pellino-1-FLAG, Phe to Ala substitution at residue 158 (protein, UniProt Q8C669 1-418, looked up, variant F158A)
E3 ubiquitin-protein ligase …: B8 E3 ubiquitin-protein ligase … with A154Y, F158A
modifications: FLAG tag

Substitutions are numbered along the chain they refer to. Names may count otherwise. “Also recorded” adds a separate entry of the source. Non-standard residues stand in square brackets, D forms with d. Residues, ends and D or L forms follow the SMILES beside them. *: point of attachment. Nle = CCCC[C@H](N)C(=O)O; Cbz = O=C(OCc1ccccc1)*; CH2F = FC*

The subject of the first test is NF-kB-dependent reporter gene. Put plainly: NF-kB-dependent reporter gene (luciferase) assay in transfected COS cells. The test is classed as cell-based, monkey. The following applies: COS cells transfected with high concentrations of expressing construct. From the text:
The murine Pellino-1 coding sequence DNA was fused, in frame at the 3′ end, to DNA encoding the FLAG epitope, followed by an in-frame stop codon. This construct was cloned into the mammalian expression vector pDC304 (identical to pDC302, described in U.S. Pat. No. 5,599,905, issued Feb. 4, 1997, except that the early splice region, consisting of splice donor and acceptor sites of the SV40 viral element, has been removed); and transfected into an IL-1-responsive line of COS-7 cells by the DEAE-dextran method.
In order to assay the effect of the Pellino-1-FLAG polypeptide and other forms of Pellino polypeptides on reporter gene activity, a method essentially as described in Born et al., 1998, J. Biol. Cheni. 273: 29445–29450 (which is incorporated by reference herein) can be used. As one example of this method, Cos7 cells were transiently transfected by the DEAE-dextran method as described (Cosman et al., 1984, Nature 312: 768–771, which is incorporated by reference herein), using 150 ng of the Pellino polypeptide expression construct and 700 ng of the reporter plasmid per 45,000 cells. Two days post-transfection, cells were stimulated with 10 ng/ml IL-1 or 40 ng/ml IL-18 (PeproTech, Inc.) for 4 hours. Cells were lysed and luciferase activity assessed using Reporter Lysis Buffer and Luciferase Assay Reagent (Promega Corp.). IL-8 promoter-reporter and NFkB-dependent reporter constructs may be used as reporter plasmids. Alternatively, the effect of Pellino polypeptide expression may be assayed in COS-1 cells. In an alternative preferred method, COS7 cells were grown in 12-well dishes as described above. The cells were transiently transfected with Pellino test plasmid, 50 ng of reporter plasmid DNA, and empty vector, as required, to a total of 1 micrograms of total DNA per well. After 24 hours, stimulating agents were added in a small amount (less than 0.5% final volume) of medium or dimethyl sulfoxide, and the cells were re-incubated for 5 hours. Cells were lysed in luciferase Reporter Lysis Buffer (Promega, Madison Wis., 0.25 ml per well) and luciferase activity was measured in a EG & G/Berthold luminometer after addition of Luciferase Assay Reagent (Promega) according to the supplier's instructions. All results were normalized to total protein content of the lysates as measured using the micro-BCA assay (Pierce, Rockford, Ill).
(In general: Reporter assays use an easily measured gene product as a stand-in for the process of interest.)
For B1, the “NFkB-dependent reporter gene activity” value is on record as “inhibitory effect”.

Staying with this test, now noted: NF-kB-dependent reporter gene activity; form of murine Pellino-1 expressed in COS cells.
Regarding B2, the “Effect on Reporter Gene” value was “inactive”. As to B3, the “Effect on Reporter Gene” value was “inactive”. On the same count and under the same terms, the value for B4 was “inactive”; that for B5 was “Inhibitory”. With B6, the “Effect on Reporter Gene” value was “inactive”. On the same count and under the same terms, the value for B7 was “Inhibitory”; that for B8 was “Stimulatory”; that for B9 was “Stimulatory”. Take B10: the “Effect on Reporter Gene” value is given as “Slightly”.

The next test concerns Pellino-1 Cleavage and Relocation. Put plainly: Effect of protease and other inhibitors on PMA-induced Pellino-1 cleavage and relocation in COS7 cells. It counts as cell-based, monkey. The settings on record: inhibitor 10 microM; COS7 cells treated with PMA. Here is the method:
In an effort to determine which protease might be involved in the regulation of Pellino-1 cleavage, COS7 cells transfected with a Pellino-1-expressing construct were treated with PMA together with inhibitors of different classes of proteinases as shown in Table 3 below.
As to `CC(C)C[C@@H](C=O)NC(=O)[C@H](CC(C)C)NC(=O)[C@H](CC(C)C)NC(=O)OCc1ccccc1` [MG132] (Cbz-Leu-Leu-Leu-aldehyde), the “Effect on Pellino-1 Cleavage and Relocation” value is on record as “none”.

Staying with this test, now noted: inhibitor 20 microM; COS7 cells treated with PMA.
Take `COC(=O)C[C@H](NC(=O)[C@H](C)NC(=O)[C@@H](NC(=O)OCc1ccccc1)C(C)C)C(=O)CF` [Z-VAD-FMK] (Cbz-Val-Ala-Asp(OMe)-CH2F): the “Effect on Pellino-1 Cleavage and Relocation” value is on record as “none”. Consider `CC(=O)N[C@@H](CSC(=O)[C@]1([C@@H](O)C(C)C)NC(=O)[C@H](C)[C@@H]1O)C(=O)O` [Lactacystin], for which the “Effect on Pellino-1 Cleavage and Relocation” value is “none”. The same measure, in the same setting: for `CCCC[C@@H](C=O)NC(=O)[C@H](CC(C)C)NC(=O)[C@H](CC(C)C)NC(C)=O` [ALLN] (Ac-Leu-Leu-[Nle]-aldehyde) the value was “none”; for `Cc1ccc(S(=O)(=O)N[C@@H](Cc2ccccc2)C(=O)CCl)cc1` [TPCK], “inhibition”.

`COC(=O)CC[C@H](NC(=O)[C@H](CC(=O)OC)NC(=O)OCc1ccccc1)C(=O)N[C@H](C(=O)N[C@@H](CC(=O)OC)C(=O)CF)C(C)C` [Z-DEVD-FMK]: the “Effect on Pellino-1 Cleavage and Relocation” value is listed as “none”.

The test is the same for the next values; noted with them: inhibitor 40 microM; COS7 cells treated with PMA.
For `C[C@@H]1C[C@@H]([C@H](O)CC2CC(=O)NC(=O)C2)C(=O)[C@@H](C)C1` [Cycloheximide], the “Effect on Pellino-1 Cleavage and Relocation” value is on record as “inhibition”.

Still in this test, the particulars now being: treatment of FLAG-Pellino-1-transfected COS7 cells with the inhibitor.
Take `C[C@@H]1C[C@@H]([C@H](O)CC2CC(=O)NC(=O)C2)C(=O)[C@@H](C)C1` [Cycloheximide]: the “PMA-induced Pellino-1 cleavage (and relocation)” value was “largely prevented; also recorded: completely prevented”.
